# Measurements from the supplement of paper PMC9112550, “Optimization of the antimicrobial peptide Bac7 by deep mutational scanning” (BMC Biology, 2022).
# Test system: Escherichia coli TOP10
# Assay: shrunken log2 fold change of peptide-encoding DNA abundance (4.5 h post-induction vs induction); higher = less antimicrobial activity (less host growth inhibition)
# Conditions: time post-induction: 4.5 h; library: site-saturation at positions 5, 18, 19, 20
# 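Note: peptides expressed intracellularly from a pBAD plasmid library in pooled LB shake-flask culture, induced with 0.3% L-arabinose, DNA abundance read by NGS, three biological replicates, DESeq2 with apeglm shrinkage.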
row,Sequence,shrunken log2 fold change
1,RRIRWRPPRLPRPRPRPGHCPRP,-0.101
2,RRIRMRPPRLPRPRPRPTYLPRP,-0.497
3,RRIRWRPPRLPRPRPRPQCFPRP,0.146
4,RRIRDRPPRLPRPRPRPQCDPRP,-0.0921
5,RRIRGRPPRLPRPRPRPPIQPRP,0.341
6,RRIRARPPRLPRPRPRPLKCPRP,0.381
7,RRIRQRPPRLPRPRPRPYSSPRP,-0.751
8,RRIRMRPPRLPRPRPRPWGFPRP,0.0809
9,RRIRHRPPRLPRPRPRPEWRPRP,-0.0322
10,RRIRWRPPRLPRPRPRPDRQPRP,-0.018
11,RRIRMRPPRLPRPRPRPSYIPRP,-0.275
12,RRIRDRPPRLPRPRPRPYGGPRP,-0.122
13,RRIRCRPPRLPRPRPRPAGFPRP,0.1
14,RRIRTRPPRLPRPRPRPTMHPRP,0.0843
15,RRIRKRPPRLPRPRPRPRSKPRP,0.254
16,RRIRLRPPRLPRPRPRPGQVPRP,0.318
17,RRIRARPPRLPRPRPRPPMAPRP,0.484
18,RRIRCRPPRLPRPRPRPYEVPRP,-0.0152
19,RRIRQRPPRLPRPRPRPNIYPRP,-0.153
20,RRIRWRPPRLPRPRPRPDDMPRP,-0.147
21,RRIRDRPPRLPRPRPRPYMCPRP,-0.0331
22,RRIRWRPPRLPRPRPRPVTAPRP,0.138
23,RRIRSRPPRLPRPRPRPFSKPRP,-0.0877
24,RRIRARPPRLPRPRPRPFYDPRP,0.314
25,RRIRPRPPRLPRPRPRPTNDPRP,-0.00332

row,Sequence,shrunken log2 fold change
1,RRIRMRPPRLPRPRPRPWNQPRP,-0.0405
2,RRIRVRPPRLPRPRPRPVIWPRP,0.286
3,RRIRWRPPRLPRPRPRPQNFPRP,0.0414
4,RRIRKRPPRLPRPRPRPTKLPRP,0.246
5,RRIRIRPPRLPRPRPRPAQRPRP,0.0422
6,RRIRNRPPRLPRPRPRPFNQPRP,-0.408
7,RRIRARPPRLPRPRPRPDLVPRP,0.249
8,RRIRLRPPRLPRPRPRPNTRPRP,-0.273
9,RRIRVRPPRLPRPRPRPSPLPRP,-0.0757
10,RRIRWRPPRLPRPRPRPISSPRP,-0.0629
11,RRIRIRPPRLPRPRPRPAQQPRP,-0.0315
12,RRIRRRPPRLPRPRPRPYHHPRP,-0.471
13,RRIRMRPPRLPRPRPRPTSRPRP,0.385
14,RRIRWRPPRLPRPRPRPRQDPRP,0.796
15,RRIRQRPPRLPRPRPRPSNMPRP,-0.459
16,RRIRLRPPRLPRPRPRPHVIPRP,0.0211
17,RRIRDRPPRLPRPRPRPRMRPRP,0.984
18,RRIRRRPPRLPRPRPRPHINPRP,-0.432
19,RRIRARPPRLPRPRPRPFIKPRP,-0.529
20,RRIRDRPPRLPRPRPRPICNPRP,0.324
21,RRIRWRPPRLPRPRPRPPLMPRP,0.213
22,RRIRQRPPRLPRPRPRPKFQPRP,0.022
23,RRIRYRPPRLPRPRPRPCAMPRP,0.0865
24,RRIRQRPPRLPRPRPRPWWLPRP,0.27
25,RRIRHRPPRLPRPRPRPHCGPRP,-0.0402

row,Sequence,shrunken log2 fold change
1,RRIRDRPPRLPRPRPRPWFCPRP,-0.272
2,RRIRCRPPRLPRPRPRPMYIPRP,-0.675
3,RRIRERPPRLPRPRPRPRTRPRP,0.12
4,RRIRIRPPRLPRPRPRPRQNPRP,-0.459
5,RRIRTRPPRLPRPRPRPYMWPRP,-0.233
6,RRIRSRPPRLPRPRPRPKYYPRP,-0.918
7,RRIRVRPPRLPRPRPRPYKTPRP,0.0577
8,RRIRVRPPRLPRPRPRPRVDPRP,0.455
9,RRIRQRPPRLPRPRPRPFDDPRP,-0.275
10,RRIRQRPPRLPRPRPRPDTEPRP,0.0371
11,RRIRPRPPRLPRPRPRPISTPRP,-0.324
12,RRIRTRPPRLPRPRPRPAMAPRP,0.392
13,RRIRHRPPRLPRPRPRPICIPRP,-0.577
14,RRIRKRPPRLPRPRPRPFKFPRP,-0.0557
15,RRIRVRPPRLPRPRPRPRGHPRP,0.175
16,RRIRMRPPRLPRPRPRPNRDPRP,0.00277
17,RRIRMRPPRLPRPRPRPAEVPRP,0.411
18,RRIRMRPPRLPRPRPRPFQQPRP,-0.00146
19,RRIRARPPRLPRPRPRPDQHPRP,0.0116
20,RRIRSRPPRLPRPRPRPFKDPRP,-0.11
21,RRIRIRPPRLPRPRPRPCGEPRP,-0.0104
22,RRIRIRPPRLPRPRPRPARKPRP,0.462
23,RRIRYRPPRLPRPRPRPYQDPRP,-1.1
24,RRIRNRPPRLPRPRPRPELGPRP,0.193
25,RRIRCRPPRLPRPRPRPAWKPRP,0.0545

row,Sequence,shrunken log2 fold change
1,RRIRDRPPRLPRPRPRPYRTPRP,-0.0206
2,RRIRFRPPRLPRPRPRPHMEPRP,-0.405
3,RRIRIRPPRLPRPRPRPDTDPRP,-0.194
4,RRIRNRPPRLPRPRPRPTDYPRP,-0.409
5,RRIRSRPPRLPRPRPRPSGHPRP,-0.433
6,RRIRRRPPRLPRPRPRPVLEPRP,0.599
7,RRIRARPPRLPRPRPRPWGNPRP,0.00277
8,RRIRKRPPRLPRPRPRPFYCPRP,-0.0322
9,RRIRHRPPRLPRPRPRPDENPRP,-0.225
10,RRIRPRPPRLPRPRPRPIRHPRP,-0.146
11,RRIRTRPPRLPRPRPRPPRRPRP,0.386
12,RRIRERPPRLPRPRPRPMSKPRP,-0.439
13,RRIRCRPPRLPRPRPRPFFSPRP,-0.242
14,RRIRIRPPRLPRPRPRPNAIPRP,-0.204
15,RRIRNRPPRLPRPRPRPEIRPRP,0.126
16,RRIRGRPPRLPRPRPRPDVLPRP,0.246
17,RRIRYRPPRLPRPRPRPWSDPRP,-0.0783
18,RRIRTRPPRLPRPRPRPEPVPRP,0.272
19,RRIRSRPPRLPRPRPRPRLIPRP,0.288
20,RRIRFRPPRLPRPRPRPPFWPRP,0.538
21,RRIRSRPPRLPRPRPRPQERPRP,-0.0153
22,RRIRCRPPRLPRPRPRPSQVPRP,-0.156
23,RRIRRRPPRLPRPRPRPMILPRP,0.359
24,RRIRLRPPRLPRPRPRPWDSPRP,-0.145
25,RRIRSRPPRLPRPRPRPESSPRP,0.00287

row,Sequence,shrunken log2 fold change
1,RRIRSRPPRLPRPRPRPHNEPRP,-0.382
2,RRIRCRPPRLPRPRPRPKEMPRP,0.0303
3,RRIRYRPPRLPRPRPRPGNNPRP,-0.359
4,RRIRLRPPRLPRPRPRPDQAPRP,-0.00133
5,RRIRSRPPRLPRPRPRPTVMPRP,0.00504
6,RRIRYRPPRLPRPRPRPNQSPRP,-0.268
7,RRIRLRPPRLPRPRPRPAKHPRP,-0.221
8,RRIRCRPPRLPRPRPRPWWEPRP,-0.368
9,RRIRQRPPRLPRPRPRPVWCPRP,0.0608
10,RRIRHRPPRLPRPRPRPWRSPRP,-0.0818
11,RRIRKRPPRLPRPRPRPSFDPRP,0.301
12,RRIRCRPPRLPRPRPRPKFVPRP,-0.155
13,RRIRMRPPRLPRPRPRPDCEPRP,2.29
14,RRIRYRPPRLPRPRPRPLDAPRP,-0.0975
15,RRIRMRPPRLPRPRPRPDLMPRP,-0.0157
16,RRIRFRPPRLPRPRPRPLHRPRP,0.136
17,RRIRDRPPRLPRPRPRPPPQPRP,0.775
18,RRIRSRPPRLPRPRPRPHDMPRP,-0.335
19,RRIRNRPPRLPRPRPRPMAGPRP,0.0481
20,RRIRQRPPRLPRPRPRPIDMPRP,0.00643
21,RRIRFRPPRLPRPRPRPGLWPRP,0.526
22,RRIRTRPPRLPRPRPRPLESPRP,-0.0663
23,RRIRGRPPRLPRPRPRPPLGPRP,0.844
24,RRIRGRPPRLPRPRPRPLCNPRP,0.388
25,RRIRDRPPRLPRPRPRPGETPRP,0.0408

row,Sequence,shrunken log2 fold change
1,RRIRIRPPRLPRPRPRPAVLPRP,0.0102
2,RRIRDRPPRLPRPRPRPFQGPRP,-0.181
3,RRIRGRPPRLPRPRPRPNAKPRP,1.22
4,RRIRIRPPRLPRPRPRPNQVPRP,-0.429
5,RRIRNRPPRLPRPRPRPWSYPRP,-0.0175
6,RRIRIRPPRLPRPRPRPKTPPRP,-0.0573
7,RRIRQRPPRLPRPRPRPVIWPRP,0.124
8,RRIRQRPPRLPRPRPRPGVVPRP,0.000417
9,RRIRTRPPRLPRPRPRPMLPPRP,-0.0543
10,RRIRTRPPRLPRPRPRPFGHPRP,-0.145
11,RRIRKRPPRLPRPRPRPHTTPRP,0.0925
12,RRIRYRPPRLPRPRPRPRNFPRP,-0.358
13,RRIRFRPPRLPRPRPRPFLTPRP,-0.172
14,RRIRTRPPRLPRPRPRPMHCPRP,-0.235
15,RRIRERPPRLPRPRPRPWTGPRP,-0.00968
16,RRIRKRPPRLPRPRPRPFRQPRP,-0.0695
17,RRIRCRPPRLPRPRPRPPQCPRP,0.182
18,RRIRNRPPRLPRPRPRPPRSPRP,0.446
19,RRIRWRPPRLPRPRPRPKMAPRP,0.859
20,RRIRSRPPRLPRPRPRPKRWPRP,0.71
21,RRIRVRPPRLPRPRPRPMDLPRP,0.156
22,RRIRLRPPRLPRPRPRPWCDPRP,-0.437
23,RRIRSRPPRLPRPRPRPYDCPRP,-0.0167
24,RRIRFRPPRLPRPRPRPIMNPRP,-0.515
25,RRIRNRPPRLPRPRPRPFIIPRP,-0.41
